# In patent publication US20160280786A1:
# Substitutions are numbered along the chain they refer to.
# B1: 4CTLAPMP2G9 (VHH)
# VHH: EVQLVKSGGQLVQAGGSLRLSCAATGRTYNSYPLGWFRQAPGKEREFVAAISASGTLRAYADSVKGRFTISRDSAKNTVYLQMNNLKPEDTAVYYCARARSVGWRASHHLSDYDNWGQGTQVTVSS
# B2: 4CTLAPMP02A5 (VHH)
# VHH: EVQLVESGGGLVQAGGSLRLSCAASGRTNSTTLMGWSRRAPGKEREFVAAISGSGTLTSYADSVKGRFAISRDNAKNTVYLQMNSLKPEDTAIYYCAAGLTSWALIPSRTLTTWGQGTQVTVSS
# B3: 4CTLAPMP11E3 (VHH)
# VHH: EVQLVESGGGLVEPGGSLRLSCAASGSISSYNVMGWYRQAPGQQRDLVAHIASNGEIMYADSAKGRFTISRDNAKKTVYLQMNSLKPEDTAVYYCKLWVLGNDYWGQGTQVTVSS
# B4: 4CTLAPMP12H2 (VHH)
# VHH: B3 VHH with G108R
# B5: 4CTLAPMP03C4 (VHH)
# VHH: EVQLVESGGGLVQAGGSLRLSCAASGGTFSFYGMGWFRQAPGKEREFVADIRTSAGRTYYADSVKGRFTISRDNAKNTVYLQMNSLKPEDTAVYYCAAEMSGISGWDYWGQGTQVTVSS
# B6: 4CTLAPMP11F1 (VHH)
# VHH: B5 VHH with R45Q
# B7: 4CTLAPMP06C10 (VHH)
# VHH: EVQLVESGGGLVQAGGSLRLSCAASGRTFSNYTIAYFRQAPGREREFAAAISPHGTLRSFADSVKDRFTISRDNAKNTVWLQMNSLKLEDTAVYYCAADPSGWGLRQHSENEYPYWGLGTQVTVSS
# B8: 4CTLAPMP02F2 (VHH)
# VHH: EVQLMESGGGLVQTGGSLRLSCAASGRTFSNYTMGWFRQAPGKDREFVAAISRSGSLKAYADSVKGRFTPSRDNAKKMAYLQMNSLKPEDTAVYYCAAAPVPWGTRPSLFPYDSWGQGTQVTVSS
# B9: 4CTLAPMP02F4 (VHH)
# VHH: B8 VHH with M5V, S56A, L109F
# B10: 4CTLAPMP02G2 (VHH)
# VHH: B8 VHH with M5V, G8R, A59S, P70I, L109F, P111T
# Target: cynomolgus monkey CTLA4 (human CTLA4 cDNA with S13N, I17T and L105M) on stably transfected CHO-K1 cells (human cDNA mutated to the cynomolgus monkey extracellular domain) (UniProt P16410)
# Assay: FACS direct binding titration on CHO cells with cynomolgus CTLA4 (head prints IC50)
# cynomolgus monkey CTLA4 (human CTLA4 cDNA with S13N, I17T and L105M) on stably transfected CHO-K1 cells (human cDNA mutated to the cynomolgus monkey extracellular domain), sequence (P16410 36-223, stated change not applied): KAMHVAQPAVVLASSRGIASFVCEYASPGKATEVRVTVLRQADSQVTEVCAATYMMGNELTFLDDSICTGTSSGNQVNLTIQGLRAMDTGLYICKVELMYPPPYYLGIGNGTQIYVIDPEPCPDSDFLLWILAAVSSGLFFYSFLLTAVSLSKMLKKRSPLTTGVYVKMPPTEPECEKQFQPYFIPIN
row,IC50 [nM],Binder
1,2.66,B1
2,7.74,B2
3,4.5,B3
4,5.65,B4
5,6.73,B5
6,5.51,B6
7,5.47,B7
8,2.42,B8
9,2.36,B9
10,2.08,B10
